# Experiments:
# [1] = molecular target: hGPC3^core(R355A/R358A) (human) (UniProt P51654); test: native MS
# [2] = molecular target: rattus norvegicus Unc5D residues 32-307 (rUnc5D^IgIgTSP) (rattus norvegicus) (UniProt F1LW30); test: crystal structure
# Chain of hGPC3^core(R355A/R358A) (human) (P51654 32-483 R355A/R358A): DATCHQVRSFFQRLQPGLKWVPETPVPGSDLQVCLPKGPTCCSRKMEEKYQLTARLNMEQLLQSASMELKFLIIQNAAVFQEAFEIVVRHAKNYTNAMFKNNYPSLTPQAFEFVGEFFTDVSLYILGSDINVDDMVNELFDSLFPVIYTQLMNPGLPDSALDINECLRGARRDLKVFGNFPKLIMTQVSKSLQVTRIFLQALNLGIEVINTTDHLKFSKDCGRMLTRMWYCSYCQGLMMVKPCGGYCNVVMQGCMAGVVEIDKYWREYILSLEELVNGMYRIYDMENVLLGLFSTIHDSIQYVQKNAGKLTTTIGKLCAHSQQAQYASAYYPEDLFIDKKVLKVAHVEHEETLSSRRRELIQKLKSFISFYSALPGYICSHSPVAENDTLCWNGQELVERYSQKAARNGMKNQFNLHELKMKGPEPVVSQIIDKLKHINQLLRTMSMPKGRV
substance,measurement,setting,value
rattus norvegicus Unc5D residues 32-307 (rUnc5D^IgIgTSP) (from UniProt F1LW30 32-307) (domain or fragment),stoichiometry N (Unc5D per GPC3 (1:1)),[1],1
same,stoichiometry N (Unc5D per GPC3 (2:2)),[1],1
same,stoichiometry N (Unc5D per GPC3 (4:4)),[1],1
same,stoichiometry N,[2],4
